Data published in the RNAGym collection of RNA variant scans (doi:10.1021/acssynbio.7b00057).

B1: Pistol ribozyme (parent)
chain: GGGUCGUUGUUCCAUAAUCGCGUGGAUAUGGCACGCAAGUUUCUACCGGGCACCGUAAAUGUCCGACUGGAGCCGUUCGGGCGGCUAUAAACAGACCUCAGGCCCGAAGCGUGGCGGCACCUGCCGCCGGUGGUAAAAAAGAUCGGAAGAGCACACGUCU

Variants of: B1
Assay: aptazyme ON/OFF ratio, guanine; higher = stronger switching; co-transcriptional cleavage with and without guanine

Variant	aptazyme ON/OFF ratio
U7C U8A G9U U11A C12U C13G	1.23
U7C U8A G9U U10G U11C C12A C13U	1.27
U7C U8A G9U U10G U11C C12A C13G	1.16
U7C U8A G9U U10G U11C C12A C13A	1.18
U7C U8A G9U U11G C12A C13G	1.16
U7C U8A G9U U11G C12A C13A	1.12
U7C U8A G9U U11G C12A C13U	1.2
U7C U8A U11A C12A C13U	1.26
U7C U8A U11A C12A C13G	1.08
U7C U8A U11A C12A C13A	1.12
U7C U8A U11A C12G C13G	1.16
U7C U8A U11A C12G C13A	1.09
U7C U8A U11A C12G C13U	1.12
U7C U8A U10C C12A C13G	1.07
U7C U8A U10C C12A C13U	1.24
U7C U8A U10C C12A C13A	1.17
U7C U8A U10A U11C C12G C13G	1.22
U7C U8A U10A U11C C12G C13A	1.15
U7C U8A U10A U11C C12G C13U	1.13
U7C U8A U10G U11A C12U	1.16
U7C U8A U10G U11A C12A	1.22
U7C U8A U10G U11A C12G	1.33
U7C U8A U10G U11C C12U	1.09
U7C U8A U10G U11C C12A	1.62

Variant	aptazyme ON/OFF ratio
U7C U8A U10G U11C C12G	1.53
U7C U8A U11C C12A C13A	1.29
U7C U8A U11C C12A C13G	1.18
U7C U8A U11C C12A C13U	1.25
U7C U8A G9U U11G C13A	1.17
U7C U8A G9U U11G C13U	1.17
U7C U8A G9U U11G C13G	1.02
U7C U8A U11G C12G C13G	1.13
U7C U8A U11G C12G C13A	1.1
U7C U8A U11G C12G C13U	1.13
U7C U8A U10C U11C C12G	1.25
U7C U8A U10C U11C C12U	1.09
U7C U8A U10C U11C C12A	1.17
U7C U8A U11G C12U C13G	1.13
U7C U8A U11G C12U C13A	1.29
U7C U8A U11G C12U C13U	1.37
U7C U8A G9U U10G U11G C12G C13U	1.14
U7C U8A G9U U10G U11G C12G C13G	1.14
U7C U8A G9U U10G U11G C12G C13A	1.21
U7C U8A U11A C12A	1.28
U7C U8A U11A C12U	1.16
U7C U8A U11A C12G	1.09
U7C U8A G9U U11G C12G C13G	1.16
U7C U8A G9U U11G C12G C13A	1.14

Variant	aptazyme ON/OFF ratio
U7C U8A G9U U11G C12G C13U	1.14
U7C U8A G9U U10G U11A C12G C13U	1.2
U7C U8A U11C C12U C13A	1.31
U7C U8A U11C C12U C13U	1.19
U7C U8A U11C C12U C13G	1.27
U7C U8A U10G U11A	1.06
U7C U8A U10G U11G	1.24
U7C U8A U10G U11C	1.07
U7C U8A U10C U11G C12A	1.1
U7C U8A U10C U11G C12G	1.37
U7C U8A U10C U11G C12U	1.17
U7C U8A U10G U11G C12A C13G	1.09
U7C U8A U10G U11G C12A C13U	1.29
U7C U8A U10G U11G C12A C13A	1.18
U7C U8A U10A U11A C12G	1.2
U7C U8A U10A U11A C12U	1.26
U7C U8A U10A U11A C12A	1.15
U7C U8A U10A U11G C12G C13G	1.13
U7C U8A U10A U11G C12G C13U	1.24
U7C U8A U10A U11G C12G C13A	1.03
U7C U8A U10A U11A C13A	1.17
U7C U8A U10A U11A C13U	1.17
U7C U8A U10A U11A C13G	1.19
U7C U8A U11A C13A	1.15

Variant	aptazyme ON/OFF ratio
U7C U8A U11A C13U	1.12
U7C U8A U11A C13G	1.08
U7C U8A U10A U11C C13G	1.04
U7C U8A U10A U11C C13U	1.01
U7C U8A U10A U11C C13A	1.03
U7C U8A G9U U10G U11C C12G C13A	1.22
U7C U8A G9U U10G U11C C12G C13G	1.23
U7C U8A G9U U10G U11C C12G C13U	1.24
U7C U8A U10G C12A C13A	1.2
U7C U8A U10G C12A C13G	1.07
U7C U8A U10G C12A C13U	1.27
U7C U8A U10G U11A C13G	1.17
U7C U8A U10G U11A C13U	1.07
U7C U8A U10G U11A C13A	1.11
U7C U8A U10C	1.76
U7C U8A U10G	1.37
U7C U8A U10A	1.1
U7C U8A U10A U11G C12A C13U	1.19
U7C U8A U10A U11G C12A C13A	1.12
U7C U8A U10A U11G C12A C13G	1.17
U7C U8A U10A C12G C13A	1.32
U7C U8A U10A C12G C13U	1.26
U7C U8A U10A C12G C13G	1.22
U7C U8A U10C U11A C12A	1.27

Variant	aptazyme ON/OFF ratio
U7C U8A U10C U11A C12G	1.2
U7C U8A U10C U11A C12U	1.19
U7C U8A U11G C13A	1.14
U7C U8A U11G C13G	1.06
U7C U8A U11G C13U	1.19
U7C U8A G9U U11C C12G	1.14
U7C U8A G9U U11C C12U	1.17
U7C U8A G9U U11C C12A	1.13
U7C U8A G9U U11A C12G C13U	1.15
U7C U8A G9U U11A C12G C13A	1.17
U7C U8A G9U U11A C12G C13G	1.15
U7C U8A U10C C13G	1.22
U7C U8A U10C C13U	3.34
U7C U8A U10C C13A	1.09
U7C U8A U10C U11A C13A	1.12
U7C U8A U10C U11A C13U	1.16
U7C U8A U10C U11A C13G	1.15
U7C U8A U10G C12U C13G	1.13
U7C U8A U10G C12U C13A	1.34
U7C U8A U10G C12U C13U	1.24
U7C U8A G9U U10G U11A C13U	1.03
U7C U8A G9U U10G U11A C13G	1.07
U7C U8A G9U U10G U11A C13A	1.06
U7C U8A G9U U10G U11C C12A	1.21

Variant	aptazyme ON/OFF ratio
U7C U8A G9U U10G U11C C12G	1.26
U7C U8A G9U U10G U11C C12U	1.07
U7C U8A U10G U11G C12A	1.2
U7C U8A U10G U11G C12G	1.18
U7C U8A U10G U11G C12U	1.28
U7C U8A U10C U11C C12A C13U	1.27
U7C U8A U10C U11C C12A C13G	1.27
U7C U8A U10C U11C C12A C13A	1.18
U7C U8A U10G U11C C12G C13G	1.14
U7C U8A U10G U11C C12G C13A	1.3
U7C U8A U10G U11C C12G C13U	1.38
U7C U8A G9U U11C C12G C13U	1.16
U7C U8A G9U U11C C12G C13A	1.17
U7C U8A G9U U11C C12G C13G	1.12
U7C U8A U11C C12G C13G	1.26
U7C U8A U11C C12G C13U	1.3
U7C U8A U11C C12G C13A	1.3
U7C U8A U10C U11C	1.05
U7C U8A U10C U11G	1.34
U7C U8A U10C U11A	1.16
U7C U8A G9U U10G U11G C12A	1.16
U7C U8A G9U U10G U11G C12G	1.26
U7C U8A G9U U10G U11G C12U	1.25
U7C U8A U10A C12A C13G	1.21

Variant	aptazyme ON/OFF ratio
U7C U8A U10A C12A C13U	1.15
U7C U8A U10A C12A C13A	1.17
U7C U8A U10C U11C C12G C13G	1.12
U7C U8A U10C U11C C12G C13A	1.2
U7C U8A U10C U11C C12G C13U	1.09
U7C U8A G9U U10G U11G C12U C13A	1.11
U7C U8A G9U U10G U11G C12U C13G	1.15
U7C U8A G9U U10G U11G C12U C13U	1.3
U7C U8A G9U U10G U11G C12A C13A	1.07
U7C U8A G9U U10G U11G C12A C13U	1.26
U7C U8A G9U U10G U11G C12A C13G	1.11
U7C U8A G9U U10G U11G C13G	1.04
U7C U8A G9U U10G U11G C13A	1.13
U7C U8A G9U U10G U11G C13U	1.06
U7C U8A U10A U11C	1.05
U7C U8A U10A U11A	1.14
U7C U8A U10A U11G	1.22
U7C U8A U10C C12G C13G	1.16
U7C U8A U10C C12G C13U	1.31
U7C U8A U10C C12G C13A	1.19
U7C U8A G9U U11C C12A C13U	1.2
U7C U8A G9U U11C C12A C13G	1.07
U7C U8A G9U U11C C12A C13A	1.1
